Test results taken from article PMC3756924 (Molecular Biology of the Cell, 2013).

T1: GST-Sec24p (S. cerevisiae, UniProt P40482 1-926)
T1 sequence (looked up): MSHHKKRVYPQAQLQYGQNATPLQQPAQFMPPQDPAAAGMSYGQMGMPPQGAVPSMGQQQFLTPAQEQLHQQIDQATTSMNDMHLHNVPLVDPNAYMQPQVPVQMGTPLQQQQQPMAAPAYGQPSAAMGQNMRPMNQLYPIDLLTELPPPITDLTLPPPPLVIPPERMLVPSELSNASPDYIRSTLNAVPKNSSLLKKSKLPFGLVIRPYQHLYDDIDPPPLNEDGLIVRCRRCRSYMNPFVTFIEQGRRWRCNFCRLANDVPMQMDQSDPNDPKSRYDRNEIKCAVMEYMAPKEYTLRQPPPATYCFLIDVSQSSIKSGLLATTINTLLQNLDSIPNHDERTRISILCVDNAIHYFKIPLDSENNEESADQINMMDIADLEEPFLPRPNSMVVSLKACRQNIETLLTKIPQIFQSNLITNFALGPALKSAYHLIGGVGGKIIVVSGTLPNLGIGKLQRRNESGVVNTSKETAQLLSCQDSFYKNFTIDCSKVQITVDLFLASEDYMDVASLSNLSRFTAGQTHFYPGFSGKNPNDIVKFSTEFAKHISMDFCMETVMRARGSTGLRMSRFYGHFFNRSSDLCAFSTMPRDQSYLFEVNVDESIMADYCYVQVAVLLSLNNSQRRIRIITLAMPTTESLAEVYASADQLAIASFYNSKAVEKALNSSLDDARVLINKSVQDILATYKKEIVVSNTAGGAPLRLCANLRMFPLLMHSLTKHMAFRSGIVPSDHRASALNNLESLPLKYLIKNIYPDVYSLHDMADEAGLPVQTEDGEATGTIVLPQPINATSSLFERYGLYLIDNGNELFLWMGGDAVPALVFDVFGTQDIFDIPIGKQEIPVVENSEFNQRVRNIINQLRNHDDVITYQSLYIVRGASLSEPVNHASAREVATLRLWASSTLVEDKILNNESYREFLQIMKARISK

T2: GST-Lst1p (S. cerevisiae, UniProt P38810 1-929)
T2 sequence (looked up): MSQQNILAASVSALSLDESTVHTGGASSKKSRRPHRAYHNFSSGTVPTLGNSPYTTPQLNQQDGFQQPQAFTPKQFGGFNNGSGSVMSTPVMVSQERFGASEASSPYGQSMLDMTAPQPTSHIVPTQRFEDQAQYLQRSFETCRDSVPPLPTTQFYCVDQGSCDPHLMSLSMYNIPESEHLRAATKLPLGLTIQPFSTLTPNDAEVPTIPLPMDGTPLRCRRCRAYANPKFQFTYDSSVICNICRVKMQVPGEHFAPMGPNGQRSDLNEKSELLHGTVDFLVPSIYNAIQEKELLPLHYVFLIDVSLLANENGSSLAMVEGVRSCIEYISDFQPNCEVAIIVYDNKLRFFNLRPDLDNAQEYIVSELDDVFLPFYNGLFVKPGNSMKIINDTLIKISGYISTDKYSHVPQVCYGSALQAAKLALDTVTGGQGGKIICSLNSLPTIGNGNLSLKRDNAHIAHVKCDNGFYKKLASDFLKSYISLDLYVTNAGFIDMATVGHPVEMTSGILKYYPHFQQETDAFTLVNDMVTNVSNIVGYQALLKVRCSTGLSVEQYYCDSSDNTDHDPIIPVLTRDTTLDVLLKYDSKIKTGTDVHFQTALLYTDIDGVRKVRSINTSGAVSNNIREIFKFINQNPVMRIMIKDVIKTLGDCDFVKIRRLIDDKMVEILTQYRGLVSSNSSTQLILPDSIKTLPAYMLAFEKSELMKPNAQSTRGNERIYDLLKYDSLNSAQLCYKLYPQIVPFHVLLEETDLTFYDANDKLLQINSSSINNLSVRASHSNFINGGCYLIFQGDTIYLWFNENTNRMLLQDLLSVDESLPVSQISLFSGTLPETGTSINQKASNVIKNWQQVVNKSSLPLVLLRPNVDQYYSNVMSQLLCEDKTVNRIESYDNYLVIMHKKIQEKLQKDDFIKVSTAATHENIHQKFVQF

T3: GST-Sec31p (aa 1–500) (S. cerevisiae, UniProt P38968 1-500)
T3 sequence (looked up): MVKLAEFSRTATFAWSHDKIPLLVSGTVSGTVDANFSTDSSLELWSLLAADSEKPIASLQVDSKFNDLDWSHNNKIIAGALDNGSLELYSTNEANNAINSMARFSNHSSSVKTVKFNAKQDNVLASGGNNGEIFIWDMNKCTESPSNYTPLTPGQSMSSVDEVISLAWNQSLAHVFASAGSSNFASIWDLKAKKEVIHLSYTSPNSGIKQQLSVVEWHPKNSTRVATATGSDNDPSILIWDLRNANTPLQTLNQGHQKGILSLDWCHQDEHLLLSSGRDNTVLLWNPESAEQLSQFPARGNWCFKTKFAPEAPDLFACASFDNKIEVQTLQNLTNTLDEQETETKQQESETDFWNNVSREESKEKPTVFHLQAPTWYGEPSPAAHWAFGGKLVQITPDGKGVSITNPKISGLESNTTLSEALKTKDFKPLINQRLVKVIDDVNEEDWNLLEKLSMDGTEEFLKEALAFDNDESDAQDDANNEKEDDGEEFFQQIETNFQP

T4: GST-Sec23p (S. cerevisiae, UniProt P15303 1-768)
T4 sequence (looked up): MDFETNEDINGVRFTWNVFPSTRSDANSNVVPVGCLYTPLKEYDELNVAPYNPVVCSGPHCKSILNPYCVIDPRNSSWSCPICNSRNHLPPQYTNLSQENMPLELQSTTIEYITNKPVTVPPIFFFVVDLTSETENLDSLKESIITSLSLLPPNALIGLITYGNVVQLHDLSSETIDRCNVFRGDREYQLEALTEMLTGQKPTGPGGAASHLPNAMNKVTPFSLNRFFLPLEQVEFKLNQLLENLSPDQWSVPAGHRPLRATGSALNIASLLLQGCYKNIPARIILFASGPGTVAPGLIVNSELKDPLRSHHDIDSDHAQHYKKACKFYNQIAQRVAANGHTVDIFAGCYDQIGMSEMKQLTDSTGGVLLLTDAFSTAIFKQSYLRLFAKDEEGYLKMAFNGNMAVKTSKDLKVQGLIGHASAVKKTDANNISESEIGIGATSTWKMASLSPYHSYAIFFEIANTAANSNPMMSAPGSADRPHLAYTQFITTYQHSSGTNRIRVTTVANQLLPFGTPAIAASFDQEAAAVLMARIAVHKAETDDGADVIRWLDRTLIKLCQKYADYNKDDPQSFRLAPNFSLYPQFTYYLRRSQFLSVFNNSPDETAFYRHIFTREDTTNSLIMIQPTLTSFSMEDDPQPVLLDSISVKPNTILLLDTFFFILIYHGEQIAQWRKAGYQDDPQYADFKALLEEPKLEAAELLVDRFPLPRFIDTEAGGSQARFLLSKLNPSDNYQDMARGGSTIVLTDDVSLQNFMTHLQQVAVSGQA

B1: hexahistidine (His6)-Sit4p (enzyme, S. cerevisiae, UniProt P20604 1-311, looked up)
chain: MVSRGPDEWLETIKKCQALTENEMKQLCEMVKELLMEESNIQPVQTPVTVCGDIHGQFHDLLELFRTAGGFPDDINYIFLGDYVDRGYYSLETFTLLMCLKVKYPAKITLVRGNHESRQITQVYGFYEECLNKYGSTTVWKYCCQVFDFLTLAAIIDGKILCVHGGLSPEIRMLDQIRVLSRAQEVPHEGGFSDLLWSDPDNVEAWQVSPRGAGWLFGSKVAREFNHVNGLNLIARAHQLVMEGFKYHFPEKDVVTVWSAPNYCYRCGNVASVMKVDEDLEPTFKIFSAVPDDYIRESTANHNNQRAGYFL
B2: GST-Sec31p (aa 1115–1273) (domain or fragment, S. cerevisiae, UniProt P38968 1115-1273, looked up)
chain: RSNKLASIEQNPSQGATYPPTLSSSASPLQPSQPPTLASQVNTSAENVSHEIPADQQPIVDFLKEELARVTPLTPKEYSKQLKDCDKRLKILFYHLEKQDLLTQPTIDCLHDLVALMKEKKYKEAMVIHANIATNHAQEGGNWLTGVKRLIGIAEATLN

Key:
Test in all cases: pull-down
GST-Sec24p = target: T1, GST-Sec24p
GST-Lst1p = target: T2, GST-Lst1p
GST-Sec31p (aa 1–500) = target: T3, GST-Sec31p (aa 1–500)
GST-Sec23p = target: T4, GST-Sec23p
[1] = target: B1

Row | Binder | binding result (GST-Sec24p) | binding result (GST-Lst1p) | binding result (GST-Sec31p (aa 1–500)) | binding result (GST-Sec23p) | binding result [1]
1 | B1 | binds | binds | binds | binds | 
2 | B2 |  |  |  |  | binds
